The record followed here is PMC12509757 (2025).

The experiment deals with BSA (Bos taurus (Bovine), UniProt P02769). The experiment can be described thus: co-sedimentation (ultracentrifugation pelleting, immunoblot), BSA in place of microtubules as negative control. On the technique in general: In western blotting, separated proteins are transferred to a membrane and probed.
BSA, sequence (P02769 25-607): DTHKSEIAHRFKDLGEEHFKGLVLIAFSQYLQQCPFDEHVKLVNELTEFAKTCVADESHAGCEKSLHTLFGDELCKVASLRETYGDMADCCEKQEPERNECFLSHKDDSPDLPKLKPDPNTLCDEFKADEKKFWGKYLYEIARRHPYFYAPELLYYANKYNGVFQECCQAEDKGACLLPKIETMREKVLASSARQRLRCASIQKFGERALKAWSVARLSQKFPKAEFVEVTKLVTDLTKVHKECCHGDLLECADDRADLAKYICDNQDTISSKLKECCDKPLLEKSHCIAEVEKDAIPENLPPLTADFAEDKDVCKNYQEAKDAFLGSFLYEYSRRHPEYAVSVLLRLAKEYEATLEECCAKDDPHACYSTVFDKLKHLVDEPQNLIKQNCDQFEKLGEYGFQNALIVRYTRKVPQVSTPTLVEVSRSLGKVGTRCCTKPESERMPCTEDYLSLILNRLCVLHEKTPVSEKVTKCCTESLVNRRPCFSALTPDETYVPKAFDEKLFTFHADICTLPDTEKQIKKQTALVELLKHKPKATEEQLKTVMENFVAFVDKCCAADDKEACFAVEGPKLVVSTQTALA

B1: His GST BAR-PH (aa 1-388) of ARHGAP10, WT (protein)
chain: MGLQPLEFSDCYLDSPWFRERIRAHEAELERTNKFIKELIKDGKNLIAATKSLSVAQRKFAHSLRDFKFEFIGDAVTDDERCIDASLREFSNFLKNLEEQREIMALSVTETLIKPLEKFRKEQLGAVKEEKKKFDKETEKNYSLIDKHLNLSAKKKDSHLQEADIQVEQNRQHFYELSLEYVCKLQEIQERKKFEFVEPMLSFFQGMFTFYHQGHELAKDFNHYKMELQINIQNTRNRFEGTRSEVEELMNKIRQNPKDHKRASQFTAEGYLYVQEKRPAPFGSSWVKHYCMYRKAAKKFNMIPFEHRSGGKLGDGEVFFLKECTKRHTDSIDRRFCFDIEAADRPGVSLTMQAFSEEERKQWLEALGGKEALSHSFNTAIIPRPEGN
Consider B1, for which the binding result is “no binding”.
